# Reference: patent US20140206609A1 (Sanofi, published 2014)
# Where two headings read alike, the source gives them in different places. *1 amine or outer side, *2 acyl side, *3 side chain or, on linkers, in order; H or OH if unused. Where no end group is shown, it is not given here. Side-chain parts run from the residue outwards. [ ]: non-standard residue; d: D form. The star is where a group is joined. γGlu = O=C(O)[C@H](CCC(=O)[*:2])N[*:1]; Palmitoyl = CCCCCCCCCCCCCCCC(=O)*; Nle = CCCC[C@H](N)C(=O)O; Aib = CC(C)(N)C(=O)O
# B1: SEQ ID NO: 32 (peptide)
# peptide: Y[Aib]QGTFTSDLSIQK([γGlu-Palmitoyl])ESRAAQDFIEWLKAGGPSSGAPPPS-NH2
# modifications: N-terminus assumed
# SMILES: CCCCCCCCCCCCCCCC(=O)N[C@@H](CCC(=O)NCCCC[C@H](NC(=O)[C@H](CCC(N)=O)NC(=O)[C@@H](NC(=O)[C@H](CO)NC(=O)[C@H](CC(C)C)NC(=O)[C@H](CC(=O)O)NC(=O)[C@H](CO)NC(=O)[C@@H](NC(=O)[C@H](Cc1ccccc1)NC(=O)[C@@H](NC(=O)CNC(=O)[C@H](CCC(N)=O)NC(=O)C(C)(C)NC(=O)[C@@H](N)Cc1ccc(O)cc1)[C@@H](C)O)[C@@H](C)O)[C@@H](C)CC)C(=O)N[C@@H](CCC(=O)O)C(=O)N[C@@H](CO)C(=O)N[C@@H](CCCNC(=N)N)C(=O)N[C@@H](C)C(=O)N[C@@H](C)C(=O)N[C@@H](CCC(N)=O)C(=O)N[C@@H](CC(=O)O)C(=O)N[C@@H](Cc1ccccc1)C(=O)N[C@H](C(=O)N[C@@H](CCC(=O)O)C(=O)N[C@@H](Cc1c[nH]c2ccccc12)C(=O)N[C@@H](CC(C)C)C(=O)N[C@@H](CCCCN)C(=O)N[C@@H](C)C(=O)NCC(=O)NCC(=O)N1CCC[C@H]1C(=O)N[C@@H](CO)C(=O)N[C@@H](CO)C(=O)NCC(=O)N[C@@H](C)C(=O)N1CCC[C@H]1C(=O)N1CCC[C@H]1C(=O)N1CCC[C@H]1C(=O)N[C@@H](CO)C(N)=O)[C@@H](C)CC)C(=O)O
# B2: SEQ ID NO: 9 (peptide)
# peptide: Y[Aib]EGTFTSDLSIQK([γGlu-Palmitoyl])EKRAA[Aib]EFIEWLKNTGPSSGAPPPS-NH2
# modifications: N-terminus assumed
# SMILES: CCCCCCCCCCCCCCCC(=O)N[C@@H](CCC(=O)NCCCC[C@H](NC(=O)[C@H](CCC(N)=O)NC(=O)[C@@H](NC(=O)[C@H](CO)NC(=O)[C@H](CC(C)C)NC(=O)[C@H](CC(=O)O)NC(=O)[C@H](CO)NC(=O)[C@@H](NC(=O)[C@H](Cc1ccccc1)NC(=O)[C@@H](NC(=O)CNC(=O)[C@H](CCC(=O)O)NC(=O)C(C)(C)NC(=O)[C@@H](N)Cc1ccc(O)cc1)[C@@H](C)O)[C@@H](C)O)[C@@H](C)CC)C(=O)N[C@@H](CCC(=O)O)C(=O)N[C@@H](CCCCN)C(=O)N[C@@H](CCCNC(=N)N)C(=O)N[C@@H](C)C(=O)N[C@@H](C)C(=O)NC(C)(C)C(=O)N[C@@H](CCC(=O)O)C(=O)N[C@@H](Cc1ccccc1)C(=O)N[C@H](C(=O)N[C@@H](CCC(=O)O)C(=O)N[C@@H](Cc1c[nH]c2ccccc12)C(=O)N[C@@H](CC(C)C)C(=O)N[C@@H](CCCCN)C(=O)N[C@@H](CC(N)=O)C(=O)N[C@H](C(=O)NCC(=O)N1CCC[C@H]1C(=O)N[C@@H](CO)C(=O)N[C@@H](CO)C(=O)NCC(=O)N[C@@H](C)C(=O)N1CCC[C@H]1C(=O)N1CCC[C@H]1C(=O)N1CCC[C@H]1C(=O)N[C@@H](CO)C(N)=O)[C@@H](C)O)[C@@H](C)CC)C(=O)O
# B3: SEQ ID NO: 41 (peptide)
# peptide: Y[Aib]EGTFTSDLSIQ[Nle]EKRAA[Aib]EFIEWLKNTGPSSGAPPPS-NH2
# modifications: N-terminus assumed
# SMILES: CCCC[C@H](NC(=O)[C@H](CCC(N)=O)NC(=O)[C@@H](NC(=O)[C@H](CO)NC(=O)[C@H](CC(C)C)NC(=O)[C@H](CC(=O)O)NC(=O)[C@H](CO)NC(=O)[C@@H](NC(=O)[C@H](Cc1ccccc1)NC(=O)[C@@H](NC(=O)CNC(=O)[C@H](CCC(=O)O)NC(=O)C(C)(C)NC(=O)[C@@H](N)Cc1ccc(O)cc1)[C@@H](C)O)[C@@H](C)O)[C@@H](C)CC)C(=O)N[C@@H](CCC(=O)O)C(=O)N[C@@H](CCCCN)C(=O)N[C@@H](CCCNC(=N)N)C(=O)N[C@@H](C)C(=O)N[C@@H](C)C(=O)NC(C)(C)C(=O)N[C@@H](CCC(=O)O)C(=O)N[C@@H](Cc1ccccc1)C(=O)N[C@H](C(=O)N[C@@H](CCC(=O)O)C(=O)N[C@@H](Cc1c[nH]c2ccccc12)C(=O)N[C@@H](CC(C)C)C(=O)N[C@@H](CCCCN)C(=O)N[C@@H](CC(N)=O)C(=O)N[C@H](C(=O)NCC(=O)N1CCC[C@H]1C(=O)N[C@@H](CO)C(=O)N[C@@H](CO)C(=O)NCC(=O)N[C@@H](C)C(=O)N1CCC[C@H]1C(=O)N1CCC[C@H]1C(=O)N1CCC[C@H]1C(=O)N[C@@H](CO)C(N)=O)[C@@H](C)O)[C@@H](C)CC
# What was measured:
# Assay in all cases: cell-based or functional assay
# [1] = biological target: T1, human GIP receptor (human) (UniProt P48546)
# T1 sequence (looked up): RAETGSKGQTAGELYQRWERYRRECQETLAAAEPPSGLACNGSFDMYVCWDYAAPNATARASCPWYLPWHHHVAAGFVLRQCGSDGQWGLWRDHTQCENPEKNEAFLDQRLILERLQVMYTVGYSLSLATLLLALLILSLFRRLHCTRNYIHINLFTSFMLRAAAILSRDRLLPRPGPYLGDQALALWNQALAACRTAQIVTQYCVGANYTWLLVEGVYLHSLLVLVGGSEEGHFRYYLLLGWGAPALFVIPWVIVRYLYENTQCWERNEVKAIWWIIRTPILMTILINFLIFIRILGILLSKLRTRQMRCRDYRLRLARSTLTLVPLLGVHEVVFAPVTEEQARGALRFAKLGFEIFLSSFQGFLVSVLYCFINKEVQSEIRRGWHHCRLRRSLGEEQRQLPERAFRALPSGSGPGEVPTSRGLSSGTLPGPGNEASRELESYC
# [2] = biological target: human GLP-1 receptor (human) (UniProt P43220)
# human GIP receptor [3] = biological target: T2, human GIP receptor (human, UniProt P48546 22-466)
# T2 sequence (looked up): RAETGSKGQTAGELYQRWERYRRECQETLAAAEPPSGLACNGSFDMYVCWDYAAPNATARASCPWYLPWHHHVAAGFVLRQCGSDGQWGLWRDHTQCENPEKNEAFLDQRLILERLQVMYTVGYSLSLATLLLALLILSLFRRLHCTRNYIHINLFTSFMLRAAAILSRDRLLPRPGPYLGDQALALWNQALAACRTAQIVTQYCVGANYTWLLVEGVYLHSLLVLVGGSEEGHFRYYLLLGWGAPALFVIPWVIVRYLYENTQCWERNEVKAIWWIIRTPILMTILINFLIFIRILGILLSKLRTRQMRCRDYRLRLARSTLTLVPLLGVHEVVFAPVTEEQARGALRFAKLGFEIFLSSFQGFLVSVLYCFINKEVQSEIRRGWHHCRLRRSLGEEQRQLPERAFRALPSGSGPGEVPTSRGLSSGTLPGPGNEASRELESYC
# human GLP-1 receptor [4] = biological target: T3, human GLP-1 receptor (human, UniProt P43220 24-463)
# Target sequence in this assay (P43220 24-463): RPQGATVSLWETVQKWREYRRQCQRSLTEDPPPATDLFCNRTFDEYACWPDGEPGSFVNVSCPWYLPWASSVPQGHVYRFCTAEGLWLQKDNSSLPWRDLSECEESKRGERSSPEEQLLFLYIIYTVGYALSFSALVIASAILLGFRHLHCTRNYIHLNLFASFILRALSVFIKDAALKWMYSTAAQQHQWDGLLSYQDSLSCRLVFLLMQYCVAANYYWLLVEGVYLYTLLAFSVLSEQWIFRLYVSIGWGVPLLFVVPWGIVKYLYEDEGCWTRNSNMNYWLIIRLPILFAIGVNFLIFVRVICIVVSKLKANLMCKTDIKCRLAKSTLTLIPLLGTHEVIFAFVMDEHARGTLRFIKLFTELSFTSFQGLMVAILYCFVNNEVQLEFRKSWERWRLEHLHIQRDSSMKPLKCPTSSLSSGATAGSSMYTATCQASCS
# human GIP receptor [5] = biological target: T2, human GIP receptor; remark: listed apart in the source
# human GLP-1 receptor [6] = biological target: T3, human GLP-1 receptor; remark: listed apart in the source
# human glucagon receptor = human glucagon receptor (human, UniProt P47871 26-477)
# human GIP receptor [7] = biological target: T2, human GIP receptor; remark: listed apart in the source
# human GLP-1 receptor [8] = biological target: T3, human GLP-1 receptor; remark: listed apart in the source
# human glucagon receptor, sequence (P47871 26-477): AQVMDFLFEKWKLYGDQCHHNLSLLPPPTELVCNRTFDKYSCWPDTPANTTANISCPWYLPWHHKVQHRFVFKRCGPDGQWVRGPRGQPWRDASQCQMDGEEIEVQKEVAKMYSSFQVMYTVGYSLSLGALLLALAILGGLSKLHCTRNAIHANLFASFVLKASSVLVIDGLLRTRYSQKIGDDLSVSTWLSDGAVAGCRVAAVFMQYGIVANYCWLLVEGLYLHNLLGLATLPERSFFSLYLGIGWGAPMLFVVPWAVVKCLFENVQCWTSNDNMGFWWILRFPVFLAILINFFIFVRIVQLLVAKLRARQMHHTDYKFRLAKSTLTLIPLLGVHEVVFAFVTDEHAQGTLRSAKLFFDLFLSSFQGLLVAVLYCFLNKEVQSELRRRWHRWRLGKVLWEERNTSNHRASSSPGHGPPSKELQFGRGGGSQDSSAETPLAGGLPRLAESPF
# human GLP-1 receptor (human), sequence (P43220 24-463): as the sequence (P43220 24-463) above
Molecule,EC50 hGIP R [pM] (human GIP receptor [5]),EC50 hGLP-1 R [pM] (human GLP-1 receptor [6]),EC50 hGLUC R [pM] (human glucagon receptor),EC50 hGIP R [pM] (human GIP receptor [7]),EC50 hGLP-1 R [pM] (human GLP-1 receptor [8]),other results
Tyr(1)Ile(12)-exendin-4 (peptide),,,,,,EC50 hGIP R [pM] [1]: 93.9 pM; EC50 hGLP-1 R [pM] [2]: 1.3 pM
natural GIP (glucose-dependent insulinotropic polypeptide) (from UniProt P09681 52-93) (ligand),,,,,,EC50 [1]: 0.4 pM
Tyr(1)Ile(12)-GLP1 (peptide),,,,,,EC50 hGIP R [pM] (human GIP receptor [3]): 3660 pM; EC50 hGLP-1 R [pM] (human GLP-1 receptor [4]): 5 pM
B1,7.1 pM,8.4 pM,82.6 pM,7.1 pM,8.4 pM,
B2,5.7 pM,3.6 pM,7710 pM,5.7 pM,3.6 pM,
B3,,,,449 pM,11.2 pM,
